Results on 2 molecules are retold here after PMC4666351, “A novel transcriptional regulator of L-arabinose utilization in human gut bacteria”.

Data set [1] deals with BtAraR (BT0354), NrtR family transcription factor of Bacteroides thetaiotaomicron (B. thetaiotaomicron). Kind of data set: crystal structure; four crystal forms of SeMet BtAraR: apo-1 (R3), apo-2 (I2_(1)3), complex with a 27-bp DNA duplex (P23), complex with L-arabinose (P2_(1)); data at 100 K.
The target of data set [2] is T1, BtAraR V92D (Bacteroides thetaiotaomicron (VPI-548 …, UniProt Q8AAV8 1-225, V92D)).
T1 sequence: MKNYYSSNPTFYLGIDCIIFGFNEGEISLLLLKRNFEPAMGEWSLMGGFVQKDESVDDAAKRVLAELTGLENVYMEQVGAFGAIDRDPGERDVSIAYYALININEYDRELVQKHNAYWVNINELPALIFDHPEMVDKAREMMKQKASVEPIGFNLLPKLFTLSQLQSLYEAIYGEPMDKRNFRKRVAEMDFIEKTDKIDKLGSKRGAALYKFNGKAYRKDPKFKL
Kind of data set: EMSA; 1 uM protein; EMSA: 20 mM Tris-HCl pH 8.0, 150 mM KCl, 5 mM MgCl2, 1 mM DTT, 0.05% NP-40, 2.5% glycerol, 37 C, 30 min; DNA 0.2 nM (0.16 nM in Fig S4), protein 0.25-1 uM. To be noted: protein: recombinant; label: 5'-biotin on one strand; blunt. For orientation: Mobility shift assays separate free from complexed probe on a gel.

Data set [3] concerns the target T2, BtAraR F49Q (Bacteroides thetaiotaomicron (VPI-548 …, UniProt Q8AAV8 1-225, F49Q)).
T2 sequence: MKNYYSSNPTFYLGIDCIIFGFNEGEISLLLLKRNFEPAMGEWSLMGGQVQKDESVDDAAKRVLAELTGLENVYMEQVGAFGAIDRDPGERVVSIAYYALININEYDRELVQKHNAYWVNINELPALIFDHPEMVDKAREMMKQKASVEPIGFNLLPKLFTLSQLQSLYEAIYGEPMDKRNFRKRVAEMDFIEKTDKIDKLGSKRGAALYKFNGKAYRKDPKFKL
Kind of data set: EMSA; 0.5 mM L-arabinose, 1 uM protein; EMSA: 20 mM Tris-HCl pH 8.0, 150 mM KCl, 5 mM MgCl2, 1 mM DTT, 0.05% NP-40, 2.5% glycerol, 37 C, 30 min; DNA 0.2 nM (0.16 nM in Fig S4), protein 0.25-1 uM. To be noted: protein: recombinant; chain copies: 2; label: 5'-biotin on one strand; blunt.

Data set [4] addresses T3, BtAraR R34N (Bacteroides thetaiotaomicron (VPI-548 …, UniProt Q8AAV8 1-225, R34N)).
T3 sequence: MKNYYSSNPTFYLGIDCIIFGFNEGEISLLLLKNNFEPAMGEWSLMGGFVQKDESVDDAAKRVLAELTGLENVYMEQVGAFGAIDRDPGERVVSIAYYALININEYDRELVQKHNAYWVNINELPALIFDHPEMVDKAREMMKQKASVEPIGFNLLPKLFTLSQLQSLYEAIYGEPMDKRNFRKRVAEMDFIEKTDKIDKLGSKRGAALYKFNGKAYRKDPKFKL
The data set is described as above. To be noted: protein: recombinant; chain copies: 2; label: 5'-biotin on one strand; blunt.

The stoichiometry N is the number of molecules, sites or subunits per partner or assembly. In the case of “BtAraR (BT0354), NrtR family transcription factor of Bacteroides thetaiotaomicron (natural protein)”, the stoichiometry N in data set [1] was found to be 2.

B1: BT0356 (araM) promoter 65-bp (dsDNA)
DNA 1: CCCCCATATAAGAGTGTATTTGATACACCAAACAAAAGTGTTACTTTTACACCCAAAATACCCCC
DNA 2: GGGGGTATTTTGGGTGTAAAAGTAACACTTTTGTTTGGTGTATCAAATACACTCTTATATGGGGG
As to B1, the binding result is recorded as “no binding” in data set [2], “binds” in data set [3] and “binds” in data set [4].
